From article PMC10707054

Molecular target: FLAG-PTTG1Δ159
Assay: co-IP; TCAM2 cells overexpressing FLAG-PTTG1 or FLAG-PTTG1Δ159; IP with M2 αFLAG antibody overnight at 4 °C, Dynabeads; IP lysis buffer 50 mM Tris-Cl pH 7.5, 150 mM NaCl, 1% Nonidet P-40, 1 mM EDTA; Western blot for endogenous SPTBN1, densitometry

binding relative to wild-type PTTG1 (densitometry of the co-IP): 30%
Substance: Spectrin-βII-chain (SPTBN1) (from UniProt Q01082 1-2364) (natural protein)
